Data from patent US11279751B2.
Values belong to the binder of their own block, whether it stands above or below them.

Assays:
[1] = target: T1, human PXR-GST (Invitrogen) (human) (UniProt O75469); assay: SPR (Biacore T100), Adnectin series over human PXR-GST captured by anti-GST antibody
T1 sequence: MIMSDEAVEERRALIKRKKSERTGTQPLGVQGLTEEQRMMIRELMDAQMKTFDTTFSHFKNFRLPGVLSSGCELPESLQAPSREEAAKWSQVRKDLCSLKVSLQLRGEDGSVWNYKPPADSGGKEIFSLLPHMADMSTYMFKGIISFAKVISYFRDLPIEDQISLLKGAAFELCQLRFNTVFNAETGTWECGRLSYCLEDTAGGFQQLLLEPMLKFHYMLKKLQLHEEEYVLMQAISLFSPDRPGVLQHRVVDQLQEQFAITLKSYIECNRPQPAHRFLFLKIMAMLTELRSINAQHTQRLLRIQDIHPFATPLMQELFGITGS

[2] = target: T1, human PXR-GST (Invitrogen) (human); assay: Biacore, binder at 0.5-2 µM over GST-PXR captured by anti-GST antibody

B1: Adnectin-1 (designed binder)
chain: MASTSGSTHYYKGTADLEVVAATPTSLLISWPPPYYVEGVTVFRITYGETGGNSPVQEFTVPYWTETATISGLKPGVDYTITVYAEMYPGSPWAGQVMDIQPISINYRTEGSGSHHHHHH
Kd [1]: 11.4 nM
koff [1]: 0.00119 s⁻¹
kon [1]: 104000 M⁻¹ s⁻¹

B4: Adnectin-2 (designed binder)
chain: MASTSGVSDVPRDLEVVAATPTSLLISWDAPAVTVNNYRITYQPLLQGSSIQHFDVPGSKSTATISGLKPGVGYQITVYASTYTHSKAYYSLPISIYYRTEGSGSHHHHHH
Kd [1]: 97.8 nM
koff [1]: 0.00458 s⁻¹
kon [1]: 162000 M⁻¹ s⁻¹

B7: Adnectin-3 (designed binder)
chain: MASTSGVSDVPRDLEVVAATPTSLLISWDAPAVPVSKYVIYYWPGALISSMQAFKVPGSKSTATISGLKPGVLYSIVVDALTGDGQGSYVWDPITITYRTEGSGSHHHHHH
Kd [1]: 2.5 nM
koff [1]: 0.000378 s⁻¹
kon [1]: 16200 M⁻¹ s⁻¹

B8: Adnectin-4 (designed binder)
chain: MASTSGVSDVPRDLEVVAATPTSLLISWDAPAVTVHSYYITYQELQHHSVPQGFQVPGSKSTATISGLKPGVAYQIAVYAFTGPGLPPSDAPPIVIYYRTEGSGSHHHHHH
Kd [1]: 7.8 nM
koff [1]: 0.000168 s⁻¹
kon [1]: 21500 M⁻¹ s⁻¹

B9: Adnectin-5 (designed binder)
chain: MGVSDVPRDLEVVAATPTSLLISWKYPYETISYYRITYGETGGNSPVQEFTVPYYRSTATISGLKPGVDYTITVYAVEASAPYSDGGSPISINYRTEIDKPSQHHHHHH
Kd [1]: 5.4 nM
koff [1]: 0.0027 s⁻¹
kon [1]: 509000 M⁻¹ s⁻¹

More lines, now with the values ahead:

RU bound [2]: 146 RU
B2: WS1 binder of SEQ ID NO: 48 (designed binder)
chain: MASTSGVSDVPRDLEVVAATPTSLLISWDAPAVPVSKYVIYYWPGALISSMQAFKVPGSKSTATISGLKPGVLYSIVVDALTGDGQGSYVWDPITITYRTEGSGS

Kd [1]: 0.31 nM
koff [1]: 8.82e-05 s⁻¹
kon [1]: 288000 M⁻¹ s⁻¹
B3: Adnectin-7 (designed binder)
chain: MGVSDVPRDLEVVTATPTSLLISWDGPKYYVKYYRITYGETGGNSPVQEFTVPRTDHTATISGLKPGVDYTITVYAVKGQYGPYYGSRPISINYRTEIDKPSQHHHHHH

RU bound [2]: 81 RU
B5: WS1 binder of SEQ ID NO: 49 (designed binder)
chain: MASTSGVSDVPRDLEVVAATPTSLLISWDAPAVTVHSYYITYQELQHHSVPQGFQVPGSKSTATISGLKPGVAYQIAVYAFTGPGLPPSDAPPIVIYYRTEGSGS

Kd [1]: 4.4 nM
koff [1]: 0.000182 s⁻¹
kon [1]: 41700 M⁻¹ s⁻¹
B6: Adnectin-8 (designed binder)
chain: MGVSDVPRDLEVVAATPTSLLISWSQPGRYVKYYRITYGETGGNSPVQEFTVPNDTYTATISGLKPGVDYTITVYAVYGKYGPYYGYDPISINYRTEIDKPSQHHHHHH

Kd [1]: 1.9 nM
koff [1]: 0.00126 s⁻¹
kon [1]: 680000 M⁻¹ s⁻¹
B10: Adnectin-6 (designed binder)
chain: MGVSDVPRDLEVVAATPTSLLISWSRPKGSIKYYRITYGETGGNSPVQEFTVPNSQYTATISGLKPGVDYTITVYAVYGYPYQEPHYYPISINYRTEIDKPSQHHHHHH
